Assays:
[1] = biological target: Xenopus Nup93, target protein of the BLI measurement (Xenopus, UniProt Q7ZX96); test: BLI
[2] = biological target: xlNup93(168-820) (Xenopus laevis, UniProt Q7ZX96); test: cryo-EM structure
[3] = biological target: hNup35(173-248, the RRM domain) (human, UniProt Q8NFH5); test: crystal structure
[4] = biological target: the molecule itself; test: crystal structure
[5] = biological target: His14-NEDD8 tagged APD of xtNup98(715-866) (Xenopus tropicalis, UniProt A0A1B8XZT4); test: pull-down
[6] = biological target: human Nup35 in NPCs of HeLa cells (Homo sapiens (HeLa), UniProt Q8NFH5); test: immunostaining of cells or tissue
Chain of human Nup35 in NPCs of HeLa cells (Q8NFH5 whole entry): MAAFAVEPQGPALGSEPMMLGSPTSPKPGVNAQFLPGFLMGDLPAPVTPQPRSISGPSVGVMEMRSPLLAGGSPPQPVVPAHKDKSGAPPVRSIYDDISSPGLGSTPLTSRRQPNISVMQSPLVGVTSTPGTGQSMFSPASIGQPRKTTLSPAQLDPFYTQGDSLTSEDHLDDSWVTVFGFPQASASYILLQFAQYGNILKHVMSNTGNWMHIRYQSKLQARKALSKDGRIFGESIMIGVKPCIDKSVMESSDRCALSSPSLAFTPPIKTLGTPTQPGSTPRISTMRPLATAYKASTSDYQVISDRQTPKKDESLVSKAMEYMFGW

[7] = biological target: Xenopus Nup35 from egg extract, in newly assembled NPCs (Xenopus laevis, UniProt I1VEB0); test: immunostaining of cells or tissue
[8] = biological target: T1, Xenopus Nup98 from egg extract (Xenopus laevis, endogenous in egg …, UniProt A0A8J1MFV7); test: immunostaining of cells or tissue
[9] = biological target: T2, human Nup98 of HeLa cells (human (endogenous in HeLa), UniProt P52948); test: immunostaining of cells or tissue
T2 sequence (P52948 1-880): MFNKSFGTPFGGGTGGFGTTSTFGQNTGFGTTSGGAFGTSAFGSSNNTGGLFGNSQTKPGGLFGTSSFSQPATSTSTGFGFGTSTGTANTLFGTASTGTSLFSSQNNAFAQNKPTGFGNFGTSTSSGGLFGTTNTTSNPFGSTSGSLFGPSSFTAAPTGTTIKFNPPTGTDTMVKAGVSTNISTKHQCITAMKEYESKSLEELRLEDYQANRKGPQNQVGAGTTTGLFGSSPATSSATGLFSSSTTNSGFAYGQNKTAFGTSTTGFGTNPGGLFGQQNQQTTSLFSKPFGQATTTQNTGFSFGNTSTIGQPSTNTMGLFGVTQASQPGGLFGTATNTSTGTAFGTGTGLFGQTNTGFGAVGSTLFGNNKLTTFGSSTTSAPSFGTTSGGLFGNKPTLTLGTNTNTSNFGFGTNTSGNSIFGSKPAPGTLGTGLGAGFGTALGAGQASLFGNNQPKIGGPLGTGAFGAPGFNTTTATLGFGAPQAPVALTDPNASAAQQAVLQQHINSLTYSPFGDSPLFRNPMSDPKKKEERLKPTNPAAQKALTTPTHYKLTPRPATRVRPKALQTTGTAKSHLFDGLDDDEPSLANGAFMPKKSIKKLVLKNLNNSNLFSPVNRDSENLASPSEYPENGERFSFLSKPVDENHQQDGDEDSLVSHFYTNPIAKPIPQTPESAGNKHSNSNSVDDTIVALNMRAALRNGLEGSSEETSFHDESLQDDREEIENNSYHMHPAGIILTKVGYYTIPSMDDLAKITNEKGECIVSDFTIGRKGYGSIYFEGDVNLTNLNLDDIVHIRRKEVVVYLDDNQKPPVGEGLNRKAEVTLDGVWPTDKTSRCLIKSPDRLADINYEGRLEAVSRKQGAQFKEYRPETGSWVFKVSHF

[10] = biological target: Xenopus Nup93 from egg extract (Xenopus laevis (endogenous in egg …, UniProt Q7ZX96)); test: pull-down
Chain of Xenopus Nup93 from egg extract (Xenopus laevis (Q7ZX96 whole entry): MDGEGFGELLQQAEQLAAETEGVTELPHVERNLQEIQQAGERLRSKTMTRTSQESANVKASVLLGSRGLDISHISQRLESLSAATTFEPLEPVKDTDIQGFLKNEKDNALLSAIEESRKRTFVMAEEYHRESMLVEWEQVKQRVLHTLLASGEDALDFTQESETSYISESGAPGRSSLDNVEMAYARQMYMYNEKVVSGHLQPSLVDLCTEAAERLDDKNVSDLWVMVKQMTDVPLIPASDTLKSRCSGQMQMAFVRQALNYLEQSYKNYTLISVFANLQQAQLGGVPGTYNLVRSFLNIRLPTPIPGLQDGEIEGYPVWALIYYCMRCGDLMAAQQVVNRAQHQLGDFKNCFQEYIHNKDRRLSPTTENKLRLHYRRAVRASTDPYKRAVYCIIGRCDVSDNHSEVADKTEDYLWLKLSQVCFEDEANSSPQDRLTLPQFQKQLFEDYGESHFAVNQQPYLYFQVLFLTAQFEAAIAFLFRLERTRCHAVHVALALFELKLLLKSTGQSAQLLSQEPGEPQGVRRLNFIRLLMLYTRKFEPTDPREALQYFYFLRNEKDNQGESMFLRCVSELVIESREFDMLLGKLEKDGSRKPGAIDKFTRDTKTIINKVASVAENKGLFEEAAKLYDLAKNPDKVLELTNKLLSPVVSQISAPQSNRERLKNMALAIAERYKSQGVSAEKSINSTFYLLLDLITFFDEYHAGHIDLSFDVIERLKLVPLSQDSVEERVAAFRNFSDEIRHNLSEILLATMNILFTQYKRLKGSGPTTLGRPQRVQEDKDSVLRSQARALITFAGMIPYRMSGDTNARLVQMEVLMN

[11] = biological target: human Nup93 from HeLa lysate (human (endogenous in HeLa), UniProt Q8N1F7); test: pull-down
Chain of human Nup93 from HeLa lysate (Q8N1F7 whole entry): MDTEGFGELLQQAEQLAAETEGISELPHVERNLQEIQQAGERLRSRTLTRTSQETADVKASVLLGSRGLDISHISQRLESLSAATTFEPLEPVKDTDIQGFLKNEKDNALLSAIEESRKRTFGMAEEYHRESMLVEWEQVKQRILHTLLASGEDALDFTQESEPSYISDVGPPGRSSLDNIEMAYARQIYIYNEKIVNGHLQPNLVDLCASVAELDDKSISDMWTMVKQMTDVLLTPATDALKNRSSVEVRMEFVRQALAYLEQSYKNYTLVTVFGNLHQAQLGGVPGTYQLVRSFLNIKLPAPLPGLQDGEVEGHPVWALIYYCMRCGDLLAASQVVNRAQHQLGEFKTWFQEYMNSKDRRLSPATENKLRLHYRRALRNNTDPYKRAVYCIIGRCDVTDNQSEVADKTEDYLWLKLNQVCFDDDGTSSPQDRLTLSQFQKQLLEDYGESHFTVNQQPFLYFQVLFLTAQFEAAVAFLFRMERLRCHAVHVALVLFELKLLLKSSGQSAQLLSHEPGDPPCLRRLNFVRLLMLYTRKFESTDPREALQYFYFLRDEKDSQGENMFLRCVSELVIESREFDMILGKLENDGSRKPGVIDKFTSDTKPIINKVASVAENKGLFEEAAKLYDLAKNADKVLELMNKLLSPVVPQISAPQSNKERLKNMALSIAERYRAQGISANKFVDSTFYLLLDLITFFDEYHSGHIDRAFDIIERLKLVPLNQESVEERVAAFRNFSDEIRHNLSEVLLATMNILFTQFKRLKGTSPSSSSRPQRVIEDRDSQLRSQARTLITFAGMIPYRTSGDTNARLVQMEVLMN

[12] = biological target: T1, Xenopus Nup98 from egg extract; test: pull-down
[13] = biological target: T2, human Nup98 of HeLa cells; test: pull-down

Chain of xlNup93(168-820) (Q7ZX96 168-820): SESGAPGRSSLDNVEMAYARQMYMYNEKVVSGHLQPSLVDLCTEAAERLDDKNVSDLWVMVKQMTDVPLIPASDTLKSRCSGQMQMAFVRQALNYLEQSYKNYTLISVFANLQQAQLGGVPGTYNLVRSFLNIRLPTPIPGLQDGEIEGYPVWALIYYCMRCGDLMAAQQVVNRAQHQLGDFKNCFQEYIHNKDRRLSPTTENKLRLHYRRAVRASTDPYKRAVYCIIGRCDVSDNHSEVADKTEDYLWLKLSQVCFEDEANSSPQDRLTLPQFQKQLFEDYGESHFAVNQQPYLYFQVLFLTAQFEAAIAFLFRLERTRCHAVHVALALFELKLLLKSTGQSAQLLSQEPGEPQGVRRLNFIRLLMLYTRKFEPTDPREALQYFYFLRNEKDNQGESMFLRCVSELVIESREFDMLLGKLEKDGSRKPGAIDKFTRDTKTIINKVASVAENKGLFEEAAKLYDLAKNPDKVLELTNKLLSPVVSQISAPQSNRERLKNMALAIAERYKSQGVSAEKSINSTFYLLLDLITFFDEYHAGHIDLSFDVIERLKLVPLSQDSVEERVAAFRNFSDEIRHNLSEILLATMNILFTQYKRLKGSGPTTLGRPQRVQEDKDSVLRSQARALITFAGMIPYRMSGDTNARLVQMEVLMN
Chain of Xenopus Nup93, target protein of the BLI measurement (Q7ZX96 whole entry): as the sequence (Q7ZX96 whole entry) above

B1: xhNup93-Nb4i, biotinylated at two ectopic cysteines (VHH)
VHH: QVQLVESGGGVVQTGDSLMLSCTVSGHTIDNWAMGWFRQTPRKQREFVAAIDKRGTGAIYGNSVKGRFTVSRDNAKNMVYLRMNSLKPEDTAVYFCAVDQLNAGLGDVSYDYDYWGQGTQVTVSS
**Q.** Does B1 bind [1]?
**A.** Result: binds

B2: xhNup93-Nb4i (VHH)
VHH: B1 VHH
**Q.** Does B2 bind [2]?
**A.** Result: binds

B3: xNup93-Nb2t (VHH)
VHH: DVQLVESGGGLVQPGGSLRLSCVASGFTFSRVGMGWVRQAPGKGLEWVSDINASGGTGYADSVKGRFAISRDNAKNTLYLQMNRLKPEDTAVYYCAKMMDTAMIEAGIIKPAGQGTQVTVSS
**Q.** Does B3 bind [2]?
**A.** Result: binds

B4: xhNup35-Nb1t (VHH)
VHH: QVQLVESGGGLVQAGGSLRLSCVGTGNISSAYTMAWYRQAAGKEREVVAGILNGGSTHYADSVKGRFTISRDNAKNTVYLQMNSLQPEDTGVYCCHVVIESTRFVYDHYWGQGTRVTVSS
**Q.** Does B4 bind [3]?
**A.** Result: binds

B5: hNup35(173-248, the RRM domain) (domain or fragment)
chain: DSWVTVFGFPQASASYILLQFAQYGNILKHVMSNTGNWMHIRYQSKLQARKALSKDGRIFGESIMIGVKPCIDKSV
**Q.** Does B5 bind [4]?
**A.** Result: binds

B6: xhNup98-Nb2i (VHH)
VHH: QVQLVESGGGLAKPGGSLRLSCVATGTFRSMEDVGWYRQAPGKDRELVAEITTLGKVTYADSVKGRFTISRDDAKNAVYLQMSDLKSEDTAVYYCNIEADQTKGIGYVVYPYWGQGTRVTVSS
**Q.** Does B6 bind [5]?
**A.** Result: binds

B7: xNup98-Nb1t (VHH)
VHH: QVQLVESGGGPVEAGGSLRLSCAASGRSFSNSVMAWFRQAPGKEREFLSVLNWSSGRTSIADSVKGRFTMSRDPAKITVYLQMNGLKPEDTAVYYCAASNRGSLYTLDNQNRYEDWGQGTQVTVSS
**Q.** Does B7 bind [5]?
**A.** Result: binds

B8: xhNup35-Nb1t, fluorophore-labelled (VHH)
VHH: B4 VHH
**Q.** Does B8 bind [6]?
**A.** Result: binds

**Q.** Does B8 bind [7]?
**A.** Result: binds

B9: xNup98-Nb1t, fluorophore-labelled (VHH)
VHH: B7 VHH
**Q.** What does the source list for B9?
**A.** binding result [8]: binds; binding result [9]: no binding (tested: 35 nM)

B10: (biotin)-Avi-SUMO^Eu1-xhNup93-Nb4i (VHH)
VHH: B1 VHH
**Q.** Does B10 bind [10]?
**A.** Result: binds

**Q.** Does B10 bind [11]?
**A.** Result: binds

B11: (biotin)-Avi-SUMO^Eu1-xhNup98-Nb2i (VHH)
VHH: B6 VHH
**Q.** Does B11 bind [12]?
**A.** Result: binds

**Q.** Does B11 bind [13]?
**A.** Result: binds

— paper doi:10.1101/2023.09.12.557426 (bioRxiv, 2023)
